Patent US8709741B2, “Methods of diagnosing a plasmodium infection” (priority 2009, dated 2014)
Like-named read-outs stand apart in the source and are kept apart here.

Columns and labels:
[1] = test system: P. falciparum FcB1/Colombian strain; test: Anti-Plasmodium activity assay (dose-response, 3H-hypoxanthine incorporation), culture with human serum; assay type: cell-based
Description: The chloroquine-resistant P. falciparum FcB1/Colombian strain was used. Under the following culture conditions, the in vitro life cycle of the FcB1 strain was 48 hours. Cultures were grown in complete medium consisting of RPMI 1640 (Life Technologies, Inc.) supplemented with 11 mM glucose, 27.5 mM NaHCO3, 100 UI/mL penicillin, 100 μg/mL streptomycin, adjusted to pH 7.4 before addition of heat-inactivated human serum (A+ blood group, 8% final) or Albumax II® (0.5% final), according to the procedure of Trager and Jensen (1976). Parasites were routinely grown at 37° C. in human A+ RBCs (Red blood cells) at a 2% haematocrit and 2-6% parasitemia, in a 3% CO2, 6% O2 and 91% N2 atmosphere. Semi-synchronized cultures were established by Sorbitol (Lambros) treatment. Highly synchronized cultures (4 hour-window synchronization) were obtained by successive Plamion (Pasvol) and Sorbitol treatments. Parasitaemia and stage distribution were determined by optical examination of Diff-Quick stained culture smears. Parasitaemia (expressed in percent) is hundred times the number of parasitized erythrocytes divided by the total number of erythrocytes.
Dried preparations of the purified recombinant human sPLA2s were re-suspended at high concentration (usually 50 μM) in RPMI 0.05% BSA, and then tested individually for their capacity to inhibit the in vitro intra-erythrocytic development of P. falciparum. Dose-response assays based on ^3H-hypoxanthine incorporation by growing parasites were performed as in Guillaume et al. (2004). Radioactivity was measured with a 1450 Microbeta counter (Wallac, Perkin Elmer). Percentage of growth inhibition was calculated from the parasite-associated radioactivity compared with control without sPLA2. Values for the IC50 were determined from dose-response curves.

[2] = Enzymatic hydrolysis of purified lipoproteins (NEFA); assay type: biochemical, human; conditions: 15 h at 37° C., each sPLA2 at approximately 10×IC50
Description: CM/VLDL, LDL and HDL were purified from human plasma and used either fresh (F) or after minimal oxidization by air and light (Ox). After phospholipid content determination, plasma, LDL and HDL were adjusted to 1.6 mg PL/mL final concentration in PBS calcium. Because low amount was available, the CM/VLDL fraction was adjusted to 1.0 mg PL/mL. Each sample was incubated for 15 hours at 37° C., alone or in the presence of recombinant human GX sPLA2 (hGX PLA2; 25 nM), recombinant human GIIF sPLA2 (hGIIF PLA2; 125 nM), bee venom sPLA2 (bvPLA2; 0.18 nM) and Naja mossambica mossambica venom sPLA2 (Naja PLA2; 0.05 nM). NEFAs were quantified using the NEFA-C kit (WAKO). Values are the mean±SD of triplicate measurements. They were normalized by subtracting NEFA amount in the absence of enzyme. Two independent experiments with lipoproteins from different plasmas were performed, which gave similar qualitative results. Results from one experiment are shown;
Plasma and purified LDL and HDL were adjusted to 1.67 mg phospholipid (PL)/mL final concentration in PBS. Because purification yielded low amount of CM/VLDL, the CM/VLDL fraction was adjusted to 1.00 mg PL/mL. CaCl2 (1 mM final) was added to the lipoprotein fractions. 200 μL of each fraction were deposited in a 96-well plate and incubated for 15 hours at 37° C., alone or in the presence of recombinant human GX sPLA2 (hGX PLA2, 25.0 nM), recombinant human GIIF sPLA2 (hGIIF PLA2, 125.0 nM), bee venom sPLA2 (bvPLA2, 0.18 nM) and Naja mossambica mossambica venom sPLA2 (Naja PLA2, 0.05 nM). NEFAs were measured in triplicate using the NEFA-C kit (WAKO). Value from each fraction was normalized by subtracting the NEFA amount in the corresponding fraction without enzyme. Two independent experiments with lipoproteins from different plasmas were performed, which gave similar qualitative results. According to the experiment, maximum hydrolysis reached 50% or 65% of total PLs in the fraction. […]

[3] = test system: P. falciparum blood stages; test: Sensitivity of the P. falciparum blood stages to GX sPLA2 (15 h treatment, re-invasion); assay type: cell-based; conditions: 100 nM
Description: A parasite culture was synchronised on a 4 h window. Parasites aged 0-4 h post-invasion (p.i.) (rings, R), 18-22 h p.i. (trophozoites, T), and 34-38 h p.i. (schizonts, S) were incubated for 15 h in culture conditions with (▪) or without (□) 100 nM recombinant GX sPLA2. Afterwards cells were washed and let grow in normal culture conditions until re-invasion. GX sPLA2 inhibitory activity on the complete parasite cycle was assessed by incubating 0-4 h p.i. parasites for 48 h with GX sPLA2 (cycle). Parasitaemia in each sample was determined from Diff Quick-stained smears. For each stage, 100% parasitaemia was established from parasite growth in the absence of enzyme;
A parasite culture was synchronised on a 4 h-window. Parasites aged 0-4 h post-invasion (rings), 18-22 h post-invasion (trophozoites), and 34-38 h post-invasion (schizonts) were adjusted to 1% parasitaemia and 2% haematocrit in complete medium, and were then incubated in a 96-well plate in a candle jar at 37° C., with or without 100 nM of recombinant GX sPLA2. After 15 hours, cells were centrifuged at 900×g for 2 min, washed in RPMI and re-suspended at a 2% haematocrit in fresh complete medium for further growth. When re-invasion had occurred (P. falciparum invades new RBCs when its 48 hour-development cycle is completed), parasitaemia (%) in each well was determined from Diff Quick-stained smears. GX sPLA2 inhibitory activity on the complete parasite cycle was assessed by incubating rings with the recombinant enzyme for 48 hours.

B1: X: recombinant human group X secreted phospholipase A2 (protein, UniProt O15496 43-165, looked up)
Group 10 secretory …: GILELAGTVGCVGPRTPIAYMKYGCFCGLGGHGQPRDAIDWCCHGHDCCYTRAEEAGCSPKTERYSWQCVNQSVLCGPAENKCQELLCKCDQEIANCLAQTEYNLKYLFYPQFLCEPDSPKCD
[1]; Table II, read-out: IC50 (nM), anti-P. falciparum activity given for comparison
  IC50: 2.9 ± 2.4 nM
[1]; culture in human red blood cells and serum, mean of independent dose-response assays, read-out: IC50 ± SD (anti-P. falciparum activity)
  IC50: 2.9 ± 2.4 nM
[1]; standard P. falciparum cultures with serum
  inhibition of P. falciparum development in vitro: active against P. falciparum
[2]
  preferential order of lipoprotein hydrolysis: HDL>LDL>CM/VLDL
[3]; rings 0-4 h post-invasion
  re-invasion after treatment of rings: 25%
[3]; schizonts 34-38 h post-invasion
  schizonts that completed the cycle after treatment: less than 10%
[3]; trophozoites 18-22 h post-invasion
  trophozoites that completed the cycle after treatment: less than 10%
